Measured values taken from publication PMC8564274 (Signal Transduction and Targeted Therapy, 2021).

Target: SARS-CoV-2 receptor-binding domain (RBD) (SARS-CoV-2, UniProt P0DTC2)
Experiment: BLI
Details: both partners purified

B1: CB6 (antibody, V domains shown)
VH: EVQLVESGGGLVQPGGSLRLSCAASGFTVSSNYMSWVRQAPGKGLEWVSVIYSGGSTFYADSVKGRFTISRDNSMNTLFLQMNSLRAEDTAVYYCARVLPMYGDYLDYWGQGTLVTVSS
VL: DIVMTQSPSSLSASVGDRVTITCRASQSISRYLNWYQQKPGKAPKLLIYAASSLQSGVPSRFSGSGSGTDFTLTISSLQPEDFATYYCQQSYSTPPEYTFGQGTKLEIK
binding result: binds
